Laboratory results: patent publication US20240368242A1
One block for each substance: values may come before it.

Experiments:
[1] = target: recombinant human CD47 protein (human) (UniProt Q08722); assay: SPR, binding to human CD47
Human FcRn (human) = Human FcRn (human) (UniProt P55899); assay: SPR, binding to human FcRn
Human FcγR1A = assay: SPR, binding to human FcγR1A
FcRn-His (Example 11) = assay: SPR (BioRad ProteOn XPR 360), His-tagged target chip-bound
[2] = target: murine OX40 expressed on CHOK1 cells (CHOK1/mOX40) (murine) (UniProt P47741); assay: flow cytometry on CHOK1-mOX40 cells
Sequence of murine OX40 expressed on CHOK1 cells (CHOK1/mOX40) (murine) (P47741 20-272): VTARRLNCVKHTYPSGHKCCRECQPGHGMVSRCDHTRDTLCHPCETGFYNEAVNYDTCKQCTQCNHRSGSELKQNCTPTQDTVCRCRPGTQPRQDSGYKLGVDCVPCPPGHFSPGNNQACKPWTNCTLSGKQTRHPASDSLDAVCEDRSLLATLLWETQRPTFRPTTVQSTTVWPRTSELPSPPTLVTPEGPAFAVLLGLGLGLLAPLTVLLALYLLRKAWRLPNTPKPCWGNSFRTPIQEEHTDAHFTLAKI

Sequence of recombinant human CD47 protein (human) (Q08722 19-139 limits assumed): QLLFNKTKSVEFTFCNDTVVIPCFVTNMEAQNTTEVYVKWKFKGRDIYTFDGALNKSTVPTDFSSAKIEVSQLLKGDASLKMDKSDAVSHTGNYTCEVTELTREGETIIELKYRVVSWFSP
Sequence of Human FcγR1A (chain, as listed by the source limits assumed): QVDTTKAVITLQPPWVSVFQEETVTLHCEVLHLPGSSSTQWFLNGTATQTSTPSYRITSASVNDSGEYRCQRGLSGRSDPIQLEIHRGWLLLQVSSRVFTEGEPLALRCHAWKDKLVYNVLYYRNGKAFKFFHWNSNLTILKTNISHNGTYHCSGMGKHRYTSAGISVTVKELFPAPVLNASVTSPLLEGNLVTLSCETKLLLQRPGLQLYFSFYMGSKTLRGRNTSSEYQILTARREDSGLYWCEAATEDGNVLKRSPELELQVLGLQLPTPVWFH

Kd [1]: 3.16 nM
koff [1]: 0.00239 s⁻¹
kon [1]: 756000 M⁻¹ s⁻¹
Substance: CD172a-Fc Cntl (Fc fusion)

koff (Human FcRn (human)): 0.0046 s⁻¹
kon (Human FcRn (human)): 945000 M⁻¹ s⁻¹
koff (Human FcγR1A): 0.00044 s⁻¹
kon (Human FcγR1A): 24900 M⁻¹ s⁻¹
Substance: IgG1 (antibody)

Kd (FcRn-His (Example 11)): 8.08 nM
koff (FcRn-His (Example 11)): 0.0242 s⁻¹
kon (FcRn-His (Example 11)): 3e+06 M⁻¹ s⁻¹
Substance: IgG2A (control protein, Example 11) (antibody)

affinity (cell binding assay) [2]: 15.2 nM
Substance: murine TIM3-Fc-OX40L chimeric protein (from UniProt Q8VIM0 20-193; P43488 51-198) (Fc fusion)
